Data on 125 sequences can be found in the supplement of paper PMC9112550, “Optimization of the antimicrobial peptide Bac7 by deep mutational scanning” (BMC Biology, 2022).

The data set has as its system Escherichia coli TOP10. The experiment in a line: shrunken log2 fold change of peptide-encoding DNA abundance (4.5 h post-induction vs induction); higher = less antimicrobial activity (less host growth inhibition). The following applies: time post-induction: 4.5 h; library: site-saturation at positions 5, 18, 19, 20.
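Also: peptides expressed intracellularly from a pBAD plasmid library in pooled LB shake-flask culture, induced with 0.3% L-arabinose, DNA abundance read by NGS, three biological replicates, DESeq2 with apeglm shrinkage.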

As for RRIRHRPPRLPRPRPRPSDQPRP, the “shrunken log2 fold change” value was 0.0718.
As to RRIRRRPPRLPRPRPRPQRIPRP, the “shrunken log2 fold change” value is -0.00231.
To RRIRYRPPRLPRPRPRPSHWPRP belongs -0.225.
Regarding RRIRRRPPRLPRPRPRPVKKPRP, the “shrunken log2 fold change” value was 0.0447.
To RRIRWRPPRLPRPRPRPGQGPRP belongs 0.522; to RRIRYRPPRLPRPRPRPPFWPRP, 0.395; to RRIRERPPRLPRPRPRPCSQPRP, -0.0493.
As for RRIRIRPPRLPRPRPRPILEPRP, the “shrunken log2 fold change” value turned out to be 0.0083.
Consider RRIRIRPPRLPRPRPRPYSTPRP, for which the “shrunken log2 fold change” value was -1.85.
For the sequence RRIRRRPPRLPRPRPRPISDPRP, the “shrunken log2 fold change” value amounted to 0.136.
As for RRIRLRPPRLPRPRPRPIQLPRP, the “shrunken log2 fold change” value is -0.235.
For the sequence RRIRTRPPRLPRPRPRPGYGPRP, the “shrunken log2 fold change” value was -0.139.
Under RRIRSRPPRLPRPRPRPSAVPRP stands 0.091; under RRIRCRPPRLPRPRPRPRQFPRP, 0.0823.
For the sequence RRIRFRPPRLPRPRPRPFFYPRP, the “shrunken log2 fold change” value is -0.308.
To RRIRYRPPRLPRPRPRPAKDPRP belongs -0.151.
Consider RRIRFRPPRLPRPRPRPSEIPRP, for which the “shrunken log2 fold change” value is -0.345.
As for RRIRLRPPRLPRPRPRPTLEPRP, the “shrunken log2 fold change” value is -0.244.
To RRIRPRPPRLPRPRPRPHYRPRP belongs -0.112; to RRIRARPPRLPRPRPRPMKWPRP, 0.126.
On to RRIRFRPPRLPRPRPRPNGHPRP, for which the “shrunken log2 fold change” value was -0.0454.
With RRIRVRPPRLPRPRPRPVNNPRP, the “shrunken log2 fold change” value was -0.39.
To RRIRCRPPRLPRPRPRPGRWPRP belongs 0.434; to RRIRSRPPRLPRPRPRPHGQPRP, 0.24.
For RRIRGRPPRLPRPRPRPWIQPRP, the “shrunken log2 fold change” value was 0.0532.
To RRIRDRPPRLPRPRPRPECIPRP belongs 0.0163; to RRIRKRPPRLPRPRPRPAMRPRP, 1.33.
Consider RRIRTRPPRLPRPRPRPLTTPRP, for which the “shrunken log2 fold change” value was -0.0573.
As to RRIRCRPPRLPRPRPRPRFDPRP, the “shrunken log2 fold change” value was determined as 0.136.
Consider RRIRARPPRLPRPRPRPPMEPRP, for which the “shrunken log2 fold change” value is 0.587.
Consider RRIRMRPPRLPRPRPRPHWHPRP, for which the “shrunken log2 fold change” value worked out at 0.0139.
To RRIRNRPPRLPRPRPRPQCLPRP belongs 0.197; to RRIRHRPPRLPRPRPRPVFSPRP, 0.0833.
Under RRIRKRPPRLPRPRPRPGKQPRP stands 0.599; under RRIRLRPPRLPRPRPRPPVWPRP, 0.591; under RRIRQRPPRLPRPRPRPPGYPRP, 0.225.
With RRIRCRPPRLPRPRPRPGEGPRP, the “shrunken log2 fold change” value was -0.0346.
Under RRIRCRPPRLPRPRPRPNFMPRP stands -0.448.
For RRIRYRPPRLPRPRPRPKWEPRP, the “shrunken log2 fold change” value is -0.263.
In the case of RRIRIRPPRLPRPRPRPRWQPRP, the “shrunken log2 fold change” value worked out at 0.128.
Take RRIRNRPPRLPRPRPRPDEWPRP: the “shrunken log2 fold change” value was found to be 0.0842.
For RRIRVRPPRLPRPRPRPNQCPRP, the “shrunken log2 fold change” value is -0.264.
For the sequence RRIRNRPPRLPRPRPRPIYQPRP, the “shrunken log2 fold change” value turned out to be 0.0607.
For RRIRMRPPRLPRPRPRPCTPPRP, the “shrunken log2 fold change” value was 0.154.
On to RRIRKRPPRLPRPRPRPFNGPRP, for which the “shrunken log2 fold change” value was -0.407.
To RRIRMRPPRLPRPRPRPGILPRP belongs 0.0644.
Regarding RRIRPRPPRLPRPRPRPCTSPRP, the “shrunken log2 fold change” value is -0.0721.
Take RRIRQRPPRLPRPRPRPTQQPRP: the “shrunken log2 fold change” value turned out to be 0.0196.
Under RRIRDRPPRLPRPRPRPYFDPRP stands -0.0823.
Turning to RRIRARPPRLPRPRPRPDVFPRP, the “shrunken log2 fold change” value was 0.176.
Under RRIRDRPPRLPRPRPRPRALPRP stands 0.226; under RRIRGRPPRLPRPRPRPWQCPRP, 0.0158; under RRIRERPPRLPRPRPRPHCVPRP, 0.038.
As for RRIRCRPPRLPRPRPRPMCGPRP, the “shrunken log2 fold change” value is -0.0984.
Consider RRIRVRPPRLPRPRPRPCNFPRP, for which the “shrunken log2 fold change” value was -0.0271.
Turning to RRIRVRPPRLPRPRPRPPILPRP, the “shrunken log2 fold change” value is -0.313.
On to RRIRGRPPRLPRPRPRPCWDPRP, for which the “shrunken log2 fold change” value was determined as 0.217.
RRIRERPPRLPRPRPRPHHGPRP: the “shrunken log2 fold change” value is -0.43.
On to RRIRYRPPRLPRPRPRPRCRPRP, for which the “shrunken log2 fold change” value was -0.26.
To RRIRLRPPRLPRPRPRPEPDPRP belongs 0.342.
With RRIRERPPRLPRPRPRPNSMPRP, the “shrunken log2 fold change” value was -0.864.
As for RRIRHRPPRLPRPRPRPRNWPRP, the “shrunken log2 fold change” value worked out at 0.0465.
On to RRIRCRPPRLPRPRPRPGCNPRP, for which the “shrunken log2 fold change” value was -0.425.
As to RRIRMRPPRLPRPRPRPDVEPRP, the “shrunken log2 fold change” value is 3.52.
Turning to RRIRIRPPRLPRPRPRPMIKPRP, the “shrunken log2 fold change” value was -0.761.
For the sequence RRIRMRPPRLPRPRPRPCLSPRP, the “shrunken log2 fold change” value is -0.0592.
Under RRIRMRPPRLPRPRPRPHNCPRP stands -0.0504; under RRIRFRPPRLPRPRPRPELYPRP, 0.0341.
In the case of RRIRPRPPRLPRPRPRPWESPRP, the “shrunken log2 fold change” value came out at 0.0303.
Turning to RRIRGRPPRLPRPRPRPHNVPRP, the “shrunken log2 fold change” value was determined as 0.0498.
To RRIRKRPPRLPRPRPRPREVPRP belongs 0.538; to RRIRKRPPRLPRPRPRPFIGPRP, -0.0147.
RRIRFRPPRLPRPRPRPENDPRP: the “shrunken log2 fold change” value was determined as 0.0619.
In the case of RRIRPRPPRLPRPRPRPCCHPRP, the “shrunken log2 fold change” value came to 0.0505.
RRIRLRPPRLPRPRPRPPRDPRP: the “shrunken log2 fold change” value worked out at 0.531.
To RRIRGRPPRLPRPRPRPFKHPRP belongs -0.527; to RRIRTRPPRLPRPRPRPLCQPRP, -0.0705.
RRIRPRPPRLPRPRPRPLHIPRP: the “shrunken log2 fold change” value was 0.656.
For RRIRVRPPRLPRPRPRPPKGPRP, the “shrunken log2 fold change” value turned out to be 0.18.
As for RRIRNRPPRLPRPRPRPAGFPRP, the “shrunken log2 fold change” value amounted to 0.0141.
For RRIRTRPPRLPRPRPRPCEVPRP, the “shrunken log2 fold change” value worked out at 0.0427.
With RRIRQRPPRLPRPRPRPLRGPRP, the “shrunken log2 fold change” value was 0.664.
Take RRIRTRPPRLPRPRPRPIARPRP: the “shrunken log2 fold change” value was -0.00992.
Under RRIRWRPPRLPRPRPRPGMEPRP stands 0.302; under RRIRQRPPRLPRPRPRPGDCPRP, -0.0893.
In the case of RRIRERPPRLPRPRPRPDRMPRP, the “shrunken log2 fold change” value was -0.0498.
As to RRIRDRPPRLPRPRPRPVKHPRP, the “shrunken log2 fold change” value was -0.0698.
As to RRIRRRPPRLPRPRPRPFCFPRP, the “shrunken log2 fold change” value came out at 0.218.
With RRIRLRPPRLPRPRPRPTYCPRP, the “shrunken log2 fold change” value was -1.
As for RRIRMRPPRLPRPRPRPVGLPRP, the “shrunken log2 fold change” value was 0.383.
To RRIRMRPPRLPRPRPRPAVIPRP belongs -0.1; to RRIRYRPPRLPRPRPRPCGHPRP, -0.0238; to RRIRNRPPRLPRPRPRPNVHPRP, -0.309.
Consider RRIRQRPPRLPRPRPRPDLDPRP, for which the “shrunken log2 fold change” value turned out to be 0.0552.
On to RRIRDRPPRLPRPRPRPYMFPRP, for which the “shrunken log2 fold change” value is -0.244.
Turning to RRIRCRPPRLPRPRPRPAGEPRP, the “shrunken log2 fold change” value was 0.598.
For RRIRTRPPRLPRPRPRPFCGPRP, the “shrunken log2 fold change” value was -0.0697.
Turning to RRIRTRPPRLPRPRPRPHLWPRP, the “shrunken log2 fold change” value was 0.0316.
With RRIRSRPPRLPRPRPRPATEPRP, the “shrunken log2 fold change” value amounted to 0.121.
Turning to RRIRYRPPRLPRPRPRPGTIPRP, the “shrunken log2 fold change” value was 0.137.
In the case of RRIRNRPPRLPRPRPRPELVPRP, the “shrunken log2 fold change” value was 0.391.
Take RRIRPRPPRLPRPRPRPIHYPRP: the “shrunken log2 fold change” value was -0.967.
With RRIRERPPRLPRPRPRPSNVPRP, the “shrunken log2 fold change” value is -0.441.
Regarding RRIRARPPRLPRPRPRPNCDPRP, the “shrunken log2 fold change” value turned out to be 0.476.
As for RRIRPRPPRLPRPRPRPWANPRP, the “shrunken log2 fold change” value was -0.0618.
RRIRSRPPRLPRPRPRPLWRPRP: the “shrunken log2 fold change” value amounted to 0.303.
As for RRIRMRPPRLPRPRPRPEMAPRP, the “shrunken log2 fold change” value came out at 3.69.
Turning to RRIRERPPRLPRPRPRPIHAPRP, the “shrunken log2 fold change” value stood at 0.0259.
Turning to RRIRWRPPRLPRPRPRPSFMPRP, the “shrunken log2 fold change” value was -0.304.
On to RRIRERPPRLPRPRPRPWNCPRP, for which the “shrunken log2 fold change” value is -0.327.
As for RRIRDRPPRLPRPRPRPKWVPRP, the “shrunken log2 fold change” value is 0.538.
RRIRIRPPRLPRPRPRPWHWPRP: the “shrunken log2 fold change” value is -0.0771.
For the sequence RRIRFRPPRLPRPRPRPYTVPRP, the “shrunken log2 fold change” value is -0.00354.
For RRIRRRPPRLPRPRPRPCNLPRP, the “shrunken log2 fold change” value was -0.0686.
RRIRVRPPRLPRPRPRPLVCPRP: the “shrunken log2 fold change” value is -0.253.
Take RRIRFRPPRLPRPRPRPLDIPRP: the “shrunken log2 fold change” value is -0.267.
On to RRIRMRPPRLPRPRPRPRTYPRP, for which the “shrunken log2 fold change” value was -0.00485.
To RRIRIRPPRLPRPRPRPRPKPRP belongs 0.567.
Turning to RRIRQRPPRLPRPRPRPWNLPRP, the “shrunken log2 fold change” value was -0.0507.
To RRIRLRPPRLPRPRPRPWMFPRP belongs -0.108; to RRIRFRPPRLPRPRPRPFTSPRP, -0.316; to RRIRFRPPRLPRPRPRPTTEPRP, 0.108.
Consider RRIRRRPPRLPRPRPRPICQPRP, for which the “shrunken log2 fold change” value stood at 0.133.
Take RRIRNRPPRLPRPRPRPFTSPRP: the “shrunken log2 fold change” value was -0.0528.
Turning to RRIRYRPPRLPRPRPRPMCRPRP, the “shrunken log2 fold change” value is -0.181.
